The record followed here is paper PMC11404569, “ECT2 peptide sequences outside the YTH domain regulate its m6A-RNA binding”.

Details in all cases: protein: recombinant; tags: N-terminal His-SUMO; label: 5' FAM
One data set deals with T1, ECT2-Δα0 (Arabidopsis thaliana, UniProt Q9LJE5 1-667, del419-427).
T1 sequence: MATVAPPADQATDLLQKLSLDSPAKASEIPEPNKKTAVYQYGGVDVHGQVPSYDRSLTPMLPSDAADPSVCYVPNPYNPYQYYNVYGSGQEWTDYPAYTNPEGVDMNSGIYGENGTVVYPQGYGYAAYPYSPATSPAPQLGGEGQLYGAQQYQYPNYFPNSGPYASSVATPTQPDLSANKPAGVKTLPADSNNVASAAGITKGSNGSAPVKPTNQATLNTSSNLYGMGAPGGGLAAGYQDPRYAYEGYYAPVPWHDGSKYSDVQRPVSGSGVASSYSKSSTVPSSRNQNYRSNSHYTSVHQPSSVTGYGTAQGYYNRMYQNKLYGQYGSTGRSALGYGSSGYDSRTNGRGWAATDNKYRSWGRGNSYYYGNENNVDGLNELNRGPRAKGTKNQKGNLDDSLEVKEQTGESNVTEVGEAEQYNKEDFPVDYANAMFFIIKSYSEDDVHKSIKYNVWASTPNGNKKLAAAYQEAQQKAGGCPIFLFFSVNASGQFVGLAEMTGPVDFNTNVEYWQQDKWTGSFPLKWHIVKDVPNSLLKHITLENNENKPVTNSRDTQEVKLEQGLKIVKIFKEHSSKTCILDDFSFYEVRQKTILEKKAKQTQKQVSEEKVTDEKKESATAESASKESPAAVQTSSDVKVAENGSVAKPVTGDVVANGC
As to the kind of experiment: EMSA; close to full length, doublet kept; EMSA: 10 nM FAM-RNA; binding buffer 10 mM HEPES pH 8.0, 50 mM KCl, 1 mM EDTA, 0.05% Triton X-100, 5% glycerol, 10 µg/mL salmon DNA, 1 mM DTT, 40 U/mL RNasin; 20 min on ice; native 8% acrylamide TBE gel at 4°C. (Mobility shift assays separate free from complexed probe on a gel.)

A further data set addresses T2, ECT2-Fl mut (YTH mut) (Arabidopsis thaliana, UniProt Q9LJE5 1-667, W464A;W521A;W526A).
T2 sequence: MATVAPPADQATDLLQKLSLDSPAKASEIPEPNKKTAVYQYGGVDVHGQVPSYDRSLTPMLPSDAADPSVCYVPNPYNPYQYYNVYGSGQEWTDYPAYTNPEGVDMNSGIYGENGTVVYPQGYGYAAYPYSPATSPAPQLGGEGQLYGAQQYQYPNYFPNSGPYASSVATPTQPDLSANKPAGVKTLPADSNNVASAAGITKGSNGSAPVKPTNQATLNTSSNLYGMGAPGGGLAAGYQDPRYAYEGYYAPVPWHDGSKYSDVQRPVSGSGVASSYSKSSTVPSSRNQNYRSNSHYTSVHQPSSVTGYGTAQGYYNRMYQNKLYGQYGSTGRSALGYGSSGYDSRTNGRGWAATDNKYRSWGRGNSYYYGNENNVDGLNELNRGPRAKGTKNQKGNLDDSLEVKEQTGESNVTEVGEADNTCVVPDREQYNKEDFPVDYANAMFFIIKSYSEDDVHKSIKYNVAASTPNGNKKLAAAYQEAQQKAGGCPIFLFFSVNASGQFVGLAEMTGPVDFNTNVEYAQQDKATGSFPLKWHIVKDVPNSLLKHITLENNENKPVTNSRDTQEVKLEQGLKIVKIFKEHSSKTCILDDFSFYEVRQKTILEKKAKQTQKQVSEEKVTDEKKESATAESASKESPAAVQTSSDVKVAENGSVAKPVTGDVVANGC
Put plainly: EMSA; EMSA: 10 nM FAM-RNA; binding buffer 10 mM HEPES pH 8.0, 50 mM KCl, 1 mM EDTA, 0.05% Triton X-100, 5% glycerol, 10 µg/mL salmon DNA, 1 mM DTT, 40 U/mL RNasin; 20 min on ice; native 8% acrylamide TBE gel at 4°C.

In a further data set the target is T3, ECT2-303 YTH mut (Arabidopsis thaliana, UniProt Q9LJE5 303-667, W464A;W521A;W526A).
T3 sequence: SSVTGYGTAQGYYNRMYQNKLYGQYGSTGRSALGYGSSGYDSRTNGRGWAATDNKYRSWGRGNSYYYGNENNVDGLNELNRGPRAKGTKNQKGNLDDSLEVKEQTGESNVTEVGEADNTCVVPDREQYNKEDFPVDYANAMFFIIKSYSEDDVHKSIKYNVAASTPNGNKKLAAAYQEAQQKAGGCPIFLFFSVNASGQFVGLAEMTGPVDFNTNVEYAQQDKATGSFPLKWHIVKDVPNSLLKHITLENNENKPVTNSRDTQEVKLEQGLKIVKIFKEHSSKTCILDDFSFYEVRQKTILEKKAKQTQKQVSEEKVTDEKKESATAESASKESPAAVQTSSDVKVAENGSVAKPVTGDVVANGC
Put plainly: EMSA; up to 500 nM; EMSA: 10 nM FAM-RNA; binding buffer 10 mM HEPES pH 8.0, 50 mM KCl, 1 mM EDTA, 0.05% Triton X-100, 5% glycerol, 10 µg/mL salmon DNA, 1 mM DTT, 40 U/mL RNasin; 20 min on ice; native 8% acrylamide TBE gel at 4°C.

A further data set concerns the target T4, ECT2-108 YTH mut (Arabidopsis thaliana, UniProt Q9LJE5 108-667, W464A;W521A;W526A).
T4 sequence: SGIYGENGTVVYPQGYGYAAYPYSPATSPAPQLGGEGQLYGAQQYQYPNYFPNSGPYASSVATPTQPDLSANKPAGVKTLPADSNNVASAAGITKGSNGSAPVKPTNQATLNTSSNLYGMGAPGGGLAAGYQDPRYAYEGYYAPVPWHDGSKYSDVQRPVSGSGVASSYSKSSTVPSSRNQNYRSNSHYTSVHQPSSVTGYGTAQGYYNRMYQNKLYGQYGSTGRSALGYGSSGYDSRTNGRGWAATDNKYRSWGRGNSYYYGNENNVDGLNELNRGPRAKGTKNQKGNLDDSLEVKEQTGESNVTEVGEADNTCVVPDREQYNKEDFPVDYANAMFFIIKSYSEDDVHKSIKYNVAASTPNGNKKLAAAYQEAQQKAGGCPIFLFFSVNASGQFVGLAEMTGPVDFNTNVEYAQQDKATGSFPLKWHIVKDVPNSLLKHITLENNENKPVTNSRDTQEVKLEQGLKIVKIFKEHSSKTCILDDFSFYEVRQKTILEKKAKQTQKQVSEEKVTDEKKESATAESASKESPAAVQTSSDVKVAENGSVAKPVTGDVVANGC
Described as above.

For the molecule AUGGGCCGUUCAUCUGCUAAAAGGACUGCUUUUGGGGCUUGU (ssRNA, m6A at position 25; thiol-protected 3' bases (*G*U)) [Probe I m6A], the binding result is given as “binds” with ECT2-Δα0, “no binding” in the data set with ECT2-Fl mut (YTH mut), “no binding” with ECT2-303 YTH mut and “no binding” with ECT2-108 YTH mut.
